The results in this text go back to the RNAGym collection of RNA variant scans (doi:10.7554/elife.80360).

The chains are these.
B1: Twister Ribozyme (parent)
chain: AACACUGCCAAUGCCGGUCCCAAGCCCGGAUAAAAGUGGAGGGGGCGG

Variants of B1 are the subject of the series. Nature of the series: self-cleavage, relative activity (ratio to wild type); higher = more cleavage; co-transcriptional.
With AACACUGCCAGUGCUGGUCCCAAGCCCGGAUAAAAGUGGAGGGGGCGG [A11G C15U], the self-cleavage was determined as 0.912.
The value for AACACUGCCAAUGCCGGUCCCAAGCCCGGAUAAAAGUGGAGGGGGUGC [C46U G48C] was 1.1; that for AAUACUGCCAAUGCCGAUCCCAAGCCCGGAUAAAAGUGGAGGGGGCGG [C3U G17A] was 0.174.
Take AACCCUGCCAAUGCCGGUCCCAAGCCCGGAUAAAAGUGGAGGGGGCAG [A4C G47A]: the self-cleavage worked out at 0.178.
On to AACACUGCCAAUGCCGGUCCCAAGCCCGGAAAAAAGUGGAGGGGGGGG [U31A C46G], for which the self-cleavage turned out to be 0.763.
AACACUGACAAUGCCGGUCCCAAGCCCGGAUAAAAGUGGAUGGGGCGG [C8A G41U]: the self-cleavage was found to be 0.146.
Consider AACACUGCCAAAGCCGGUCCCAAGCCCGGAUAAAAGUGGAGUGGGCGG [U12A G42U], for which the self-cleavage is 0.427.
The value for ACCACUGCCAAUGCCGGUCCCAAGCCCGGAUAAAAGUGGAAGGGGCGG [A2C G41A] was 0.0488; that for AACACUGCCAACGCCGGUCCCAAACCCGGAUAAAAGUGGAGGGGGCGG [U12C G24A] was 0.0718; that for AACACUGCUAAUGCCGGUCCCAAGCCCGGAUAAAAGUGGAGGAGGCGG [C9U G43A] was 0.137.
Consider AACACUGAAAAUGCCGGUCCCAAGCCCGGAUAAAAGUGGAGGGGGCGG [C8A C9A], for which the self-cleavage was 0.0842.
For AACACUGCCAAUGCCGGUACCAAACCCGGAUAAAAGUGGAGGGGGCGG [C19A G24A], the self-cleavage stood at 0.0849.
For AACACUGCCAAUGCCGGUCCCAAGCCCAGAUAAAACUGGAGGGGGCGG [G28A G36C], the self-cleavage was 0.131.
Consider CACACUGCCAAUGCCGGACCCAAGCCCGGAUAAAAGUGGAGGGGGCGG [A1C U18A], for which the self-cleavage stood at 0.14.
For AACACUGCCAAUGCAGGUCCCAAGCCCGCAUAAAAGUGGAGGGGGCGG [C15A G29C], the self-cleavage is 0.156.
On to CACACUGCCAAUGCCGGUCACAAGCCCGGAUAAAAGUGGAGGGGGCGG [A1C C20A], for which the self-cleavage was found to be 0.104.
As for AACACUGCGAAUGCCGGUCCCAAGCCCGGAUAAAAGCGGAGGGGGCGG [C9G U37C], the self-cleavage came to 0.156.
As for AACACUGCCAAUGCCGGUACCAAGCCCGGAUAAUAGUGGAGGGGGCGG [C19A A34U], the self-cleavage worked out at 0.116.
Turning to AACACUGGCACUGCCGGUCCCAAGCCCGGAUAAAAGUGGAGGGGGCGG [C8G A11C], the self-cleavage came out at 0.55.
Turning to AACACUGCCAAUGUCGGUCCCAAGCCCGGAUUAAAGUGGAGGGGGCGG [C14U A32U], the self-cleavage was found to be 1.04.
As for AACCCUGCCAAUGCCGGUCCCAAGCCCGGAUAAAAGUGGAGUGGGCGG [A4C G42U], the self-cleavage was found to be 0.0422.
Take AACACUGCCAAUGCCGGUCCCCAGCCCGGAUAAAACUGGAGGGGGCGG [A22C G36C]: the self-cleavage worked out at 0.345.
With AACACUGCCAACGCCGGUCCCACGCCCGGAUAAAAGUGGAGGGGGCGG [U12C A23C], the self-cleavage worked out at 0.234.
For AACACUGCCACUGCCGGUCCCAAGCCCGGAUAAAAGUGGAGGGGGCUG [A11C G47U], the self-cleavage was 0.977.
Turning to AACACUGCCAGUGCCGGUCCCAAGCCCGAAUAAAAGUGGAGGGGGCGG [A11G G29A], the self-cleavage is 0.772.
The value for AACACUGCCAAUGCCGGUCCCAAGCCCGGAUAAAAGUGUAGGUGGCGG [G39U G43U] was 0.143; that for AACACUGCCAAUGCCGGUCCCAAGCCCGUAUAGAAGUGGAGGGGGCGG [G29U A33G] was 0.747; that for AACACUGCCAAUCCCGGUCCCAAGCCCGGAUUAAAGUGGAGGGGGCGG [G13C A32U] was 0.108.
The value for UACACUGCCAAUGCCGGUCCCAAGCCAGGAUAAAAGUGGAGGGGGCGG [A1U C27A] was 0.0592; that for AACACCGCCAAUGCCGGUCCCAAGCCCGGCUAAAAGUGGAGGGGGCGG [U6C A30C] was 0.0653; that for AACACUGCCAAUGGCGGUCCCAAGCCCGGAUAAAAGUGGAGGGGCCGG [C14G G45C] was 0.0594.
The value for AACACUGCCAAUGCCGGUCCCAAGCCCGCAUAAAAGUGGGGGGGGCGG [G29C A40G] was 0.157; that for AACACUUCCAAUGCCGGUCCCAAGCCCGGAUAAAACUGGAGGGGGCGG [G7U G36C] was 0.0408.
In the case of AACACUGCCAAUGCCGGUCCCAAGCCCUGAUAAAAGUGGAGGGGGAGG [G28U C46A], the self-cleavage was determined as 0.778.
On to AACACUGCUAAUGCCGGUCCCAAGCCCGGAUAAAAGUGGAGGGUGCGG [C9U G44U], for which the self-cleavage was found to be 0.595.
The value for AACACUGCCAAUGCCGGUCCCAAGCCCGGAUAAAACUGGAGGGGUCGG [G36C G45U] was 0.257.
The value for AACACUGCCAAUGCCGGUACCAAGCCCGGAUAAAAGUUGAGGGGGCGG [C19A G38U] was 0.12.
Consider AACACUGCCAAUGCCGGUCCCAUGCCCGGAUAAAAGUGGAGGGGCCGG [A23U G45C], for which the self-cleavage was 0.141.
As for AGCACUGCCAAAGCCGGUCCCAAGCCCGGAUAAAAGUGGAGGGGGCGG [A2G U12A], the self-cleavage amounted to 0.367.
Turning to AACACUGCCAAUGCCGGUCCCAGGCCCGGAUAAAAGGGGAGGGGGCGG [A23G U37G], the self-cleavage turned out to be 0.17.
The value for AACACUGCCAAUGCCGGUCCCAAGCCCGGAUAGAAGUGGAGGGGGUGG [A33G C46U] was 0.851; that for AACUCUGCCAAUGCCGGUCCCAAGCCCGGAUAAAAGUGGAGGGGGCGG [A4U] was 0.136; that for AACACUGCCAAUGCUGGUCCCAAGCCCGGAUAAAAGGGGAGGGGGCGG [C15U U37G] was 0.568.
With AACACUUCCAAUGCCGGUACCAAGCCCGGAUAAAAGUGGAGGGGGCGG [G7U C19A], the self-cleavage was found to be 0.0864.
AACACUGCCAAUGCCGCUCCCAAGCCCGGGUAAAAGUGGAGGGGGCGG [G17C A30G]: the self-cleavage was found to be 0.0984.
The value for AGCACUGCCAAUGCCGGUCCCAAGCCCGGAUAAAAGUGGAGGGGGCGU [A2G G48U] was 0.255; that for AACACUGUCAAUGCCGGUCCCAAGCCCGGAUAAAUGUGGAGGGGGCGG [C8U A35U] was 0.756.
With AACACUGCCAAUGCAGGUCCCAAUCCCGGAUAAAAGUGGAGGGGGCGG [C15A G24U], the self-cleavage stood at 0.0837.
The value for AACAUUGCCAAUGCCGGUCUCAAGCCCGGAUAAAAGUGGAGGGGGCGG [C5U C20U] was 0.816; that for AACACUGCCAAUGCCGGUCCCAAGCCCGGAUAGAAGUGGAGGGGUCGG [A33G G45U] was 0.782.
As to AACACUGCCAAUGCCGGUCCCAAGACUGGAUAAAAGUGGAGGGGGCGG [C25A C27U], the self-cleavage was 0.136.
Turning to AAUACUGCCAAUGCCGGUCCCAAGCCCGGAUAAAAGUGGAGCGGGCGG [C3U G42C], the self-cleavage stood at 0.159.
On to AACACUGCCAAUGCCGGUCCCAAGCCCGGAUAAAAGUGGGGGGUGCGG [A40G G44U], for which the self-cleavage is 0.156.
Regarding AACACUGCCAAAGCCGGUCCCAAGCCCGGAUAAAAGUGGAGGGGCCGG [U12A G45C], the self-cleavage turned out to be 0.643.
